Measurements as given in patent US20210009713A1 (MIDWESTERN UNIVERSITY, published 2021).
Like-named read-outs stand apart in the source and are kept apart here.

T1: aspartyl (asparaginyl) β-hydroxylase (ASPH) (UniProt Q12797 75-758, limits assumed)
T1 construct: also called ASPH protein
T1 sequence (looked up): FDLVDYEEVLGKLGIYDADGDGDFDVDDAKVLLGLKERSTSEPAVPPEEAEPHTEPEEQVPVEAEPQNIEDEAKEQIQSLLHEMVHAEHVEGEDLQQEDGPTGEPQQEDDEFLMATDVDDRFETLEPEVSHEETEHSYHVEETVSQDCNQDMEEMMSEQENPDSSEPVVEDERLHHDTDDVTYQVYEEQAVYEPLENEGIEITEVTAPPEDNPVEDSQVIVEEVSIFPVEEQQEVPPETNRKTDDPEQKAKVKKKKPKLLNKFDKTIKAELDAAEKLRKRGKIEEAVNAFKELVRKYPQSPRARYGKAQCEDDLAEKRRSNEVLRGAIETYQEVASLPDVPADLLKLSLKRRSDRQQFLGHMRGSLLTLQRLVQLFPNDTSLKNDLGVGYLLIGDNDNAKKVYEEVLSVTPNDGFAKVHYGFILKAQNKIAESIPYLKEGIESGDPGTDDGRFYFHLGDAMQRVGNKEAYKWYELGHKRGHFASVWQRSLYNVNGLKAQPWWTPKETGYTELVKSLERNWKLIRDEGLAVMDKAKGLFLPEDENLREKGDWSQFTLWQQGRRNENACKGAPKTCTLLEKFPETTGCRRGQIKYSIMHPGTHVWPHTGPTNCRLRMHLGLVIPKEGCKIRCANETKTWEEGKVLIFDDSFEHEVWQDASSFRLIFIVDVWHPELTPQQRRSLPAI


Target: T1, aspartyl (asparaginyl) β-hydroxylase …
Test: SPR, antibody captured via Protein G, ASPH as analyte
Experimental: The interaction between ASPH and a set of 6 antibodies were characterized by Essai Sciences LLC (Stillwater, Okla.) on a SensiQ Pioneer SPR Platform. The COOH2 sensor chip, which contains a planar dextran surface, was used for target immobilization. The buffer system was 10 mM HEPES, pH 7.4, 150 mM NaCl, and 0.01% Tween-20.
All channels of a COOH2 sensor chip were activated with a five-minute injection of 40 mM EDC and 10 mM NHS. Protein G was then injected across channels 1 and 2. 1 M ethanolamine, pH 8.0 was then injected across all three channels. Approximately 1000 response units of Protein G were captured on both channels 1 and 2 (FIG. 18). For each antibody-ASPH interaction, the antibody was injected on channel 1, leaving channels 2 and 3 as a Protein G reference and empty channel reference, respectively. After antibody capture, ASPH was injected at a single concentration. Following injection of ASPH, all three channels were injected with 10 mM NaOH for one minute to regenerate the Protein G surface. This was done twice for each antibody, at each tested concentration of ASPH.

Binder | Kd | koff | kon | Kd (record 2)
5H4/5K3 (antibody, V domains shown, The entries are translated variable regions that still carry the leader and the start of the constant region (GQPK... / GDPV...)) VH: QSLEESGGDLVKPGASLTLTCKASGFDFSSNAMCWVRQAPGKGPEWIACIDNGDGSTDYATWAKGRFTISKTSSTTVTLQMTSLTAADTATYFCTRNFNLWGQGTLVTVSS VL: AQVLTQTASSVSAAVGGTVTISCQSSQSVYDNNRLAWFQQKPGQPPKLLIYETSKLASGVPLRFKGSGSGTQFTLTISDLECDDAATYYCLGSYSGYIYTFGGGTEVVVKG | 144 nM | 0.00243 s⁻¹ | 16800 M⁻¹ s⁻¹ | –
9H2/9K3 (antibody, part only; not given: kappa light chain, V domains shown, part only) VH: QSLEESGGDLVKPGASLTLTCKASGFDFISNAMCWVRQAPGKGPEWIACIDNGDGSTDYATWAKGRFTISKTSSTTVTLQMTSLTAADTATYFCTRNFNLWGQGTLTVSSGQPKAPSVFPLAP | 61.9 nM | 0.00185 s⁻¹ | 29800 M⁻¹ s⁻¹ | 60 nM
